# PMC6480404
# T1: AcrIIA2 (AcrIIA2a.1) (Listeria monocytogenes phage/prophage, UniProt PDB:6MCB_3 1-123)
# T1 sequence: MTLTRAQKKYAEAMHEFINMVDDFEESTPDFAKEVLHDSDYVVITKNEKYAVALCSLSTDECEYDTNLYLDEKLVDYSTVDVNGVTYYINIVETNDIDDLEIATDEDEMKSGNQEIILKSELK
# Columns and labels:
# [1] = target: SpyCas9;AcrIIA2b (AcrIIA2b.3) (Streptococcus pyogenes;Listeria phage?, UniProt Q99ZW2;PDB:6MCC_3 1-1368;1-130, |); experiment: cryo-EM
# AcrIIA2 (AcrIIA2a.1) = target: T1, AcrIIA2 (AcrIIA2a.1); experiment: size-exclusion chromatography
# [2] = target: SpyCas9;AcrIIA2 (AcrIIA2a.1) (Streptococcus pyogenes;Listeria …, UniProt Q99ZW2;PDB:6MCB_3 1-1368;1-123, |); experiment: cryo-EM
binder,measurement,setting,value
sgRNA (structured_RNA) RNA: GGCGCAUAAAGAUGAGACGCGUUUUAGAGCUAUGCUGUUUUGAAAAAAACAGCAUAGCAAGUUAAAAUAAGGCUAGUCCGUUAUCAACUUGAAAAAGUGGCACCGAGUCGGUGCUU,binding result,[1],binds
same,binding result,AcrIIA2 (AcrIIA2a.1),no binding
same,binding result,[2],binds
